Measurements reported in patent publication US20210079074A1 (Alector, published 2021).
Residue numbers refer to the chain shown, from its start.

T1: FcγRIIa receptor (H131 variant) (UniProt P12318 34-317, limits assumed)
T1 sequence (looked up): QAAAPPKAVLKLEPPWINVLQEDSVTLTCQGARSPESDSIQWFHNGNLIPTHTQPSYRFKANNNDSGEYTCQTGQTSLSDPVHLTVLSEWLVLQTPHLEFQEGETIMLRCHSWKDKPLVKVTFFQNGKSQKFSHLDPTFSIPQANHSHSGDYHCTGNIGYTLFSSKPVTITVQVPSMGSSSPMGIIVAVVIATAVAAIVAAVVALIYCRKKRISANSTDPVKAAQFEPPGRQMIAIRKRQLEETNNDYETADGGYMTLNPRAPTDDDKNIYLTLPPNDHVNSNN

B1: anti-MS4A4A antibody 4A-352 (antibody, V domains shown)
VH: QVQLVQSGSELKKPGASVKVSCKASGYIFTSYGLSWVRQAPGQGLEWMGWINTYSGVPTYAQGFTGRFVFSLDTSVSTAYLQISSLKAEDTAVYYCARTLADYWGQGTLVTVSS
VL: DVVMTQSPLSLPVTLGQPASISCKSSRSLLYSGGKTYLSWFQQRPGQSPRRLIYLVSKLDSGVPDRFSGSGSGTDFTLKISRVEAEDVGVYYCWQGIDFHQTFGGGTKVEIK
notes: full human IgG
B2: anti-MS4A4A antibody 4A-380 (antibody, V domains shown)
VH: B1 VH with T99S, L100M
VL: B1 VL with G33S
B3: anti-MS4A4A antibody 4A-381 (antibody, V domains shown)
VH: B1 VH with T99S, L100M
VL: B1 VL with G33Q
B4: anti-MS4A4A antibody 4A-353 (antibody, V domains shown)
VH: B1 VH
VL: B1 VL with G33E
notes: full human IgG
B5: anti-MS4A4A antibody 4A-377 (antibody, V domains shown)
VH: B1 VH with T99S, L100M
VL: B1 VL
notes: full human IgG
B6: anti-MS4A4A antibody 4A-355 (antibody, V domains shown)
VH: B1 VH
VL: B1 VL with G33S
notes: full human IgG
B7: anti-MS4A4A antibody 4A-378 (antibody, V domains shown)
VH: B1 VH with T99S, L100M
VL: B1 VL with G33E
B8: anti-MS4A4A antibody 4A-354 (antibody, V domains shown)
VH: B1 VH
VL: B1 VL with G33A
notes: full human IgG
B9: anti-MS4A4A antibody 4A-356 (antibody, V domains shown)
VH: B1 VH
VL: B1 VL with G33Q
notes: full human IgG
B10: anti-MS4A4A antibody 4A-379 (antibody, V domains shown)
VH: B1 VH with T99S, L100M
VL: B1 VL with G33A
B11: anti-MS4A4A antibody 4A-302 (antibody, human IgG1, V domains shown)
VH: QVQLVQSGAEVKKPGASVKVSCKASGYTFTNYWMQWVRQAPGQGLEWMGATHPGHGDTRYAQKFQGRVTMTRDTSTSTVYMELSSLRSEDTAVYYCAREEVYYGFRSYWYFDVWGRGTLVTVSS
VL: EIVLTQSPATLSLSPGERATLSCRASESVDNYGVSFMNWYQQKPGQAPRLLIYGASNQGSGIPARFSGSGSGTDFTLTISSLEPEDFAVYYCQQSKEVPPTFGGGTKVEIK
notes: human IgG1/kappa
B12: anti-MS4A4A antibody 4A-314 (antibody, V domains shown)
VH: B11 VH with A50T, H52L
VL: B11 VL with F36R
notes: full human IgG
B13: anti-MS4A4A antibody 4A-312 (antibody, V domains shown)
VH: B11 VH with Y102D
VL: B11 VL with G59Q
notes: full human IgG
B14: anti-MS4A4A antibody 4A-313 wildtype (WT) huIgG1 (antibody)
heavy: not shown
light: EIVLTQSPATLSLSPGERATLSCRASESVDNYGVSRMNWYQQKPGQAPRLLIYGASNQGSGIPARFSGSGSGTDFTLTISSLEPEDFAVYYCQQSKEVPPTFGGGTKVEIKRTVAAPSVFIFPPSDEQLKSGTASVVCLLNNFYPREAKVQWKVDNALQSGNSQESVTEQDSKDSTYSLSSTLTLSKADYEKHKVYACEVTHQGLSSPVTKSFNRGEC
notes: also called 4A-313 WT huIgG1; 4A-313.WT
B15: anti-MS4A4A antibody 4A-308 (antibody, human IgG1, V domains shown)
VH: B11 VH with R72A, T74K, V79A
VL: DIVMTQSPDSLAVSLGERATINCRASESVDNYGVSFMNWYQQKPGQPPKLLIYGASNQGSGVPDRFSGSGSGTDFTLTISSLQAEDVAVYYCQQSKEVPPTFGGGTKVEIK
notes: human IgG1/kappa
B16: anti-MS4A4A antibody 4A-304 (antibody, human IgG1, V domains shown)
VH: B11 VH
VL: B11 VL with A9G, A64D, S81R
notes: human IgG1/kappa
B17: anti-MS4A4A antibody 4A-309 (antibody, human IgG1, V domains shown)
VH: B11 VH with M70L, R72A, T74K, T76I, V79A, S85R, E89D, A92V
VL: B11 VL
notes: human IgG1/kappa
B18: anti-MS4A4A antibody 4A-301 (antibody, human IgG1, V domains shown)
VH: B11 VH
VL: B15 VL
notes: human IgG1/kappa
B19: anti-MS4A4A antibody 4A-349 (antibody, human IgG1, V domains shown)
VH: QIQLVQSGAEVKKPGASVKVSCKASGYIFTSYGLSWVRQAPGQGLEWMGWINTYSGVPTYAQKFQGRVTMTLDTSTSTTYMELSSLRSEDTAVYYCARSLVDYWGQGTLVTVSS
VL: DIVMTQTPLSLSVTPGQPASISCKSSQSLLYSDGKTYLSWYLQKPGQPPQLLIYLVSKLDSGVPDRFSGSGSGTDFTLKISRVEAEDVGVYYCWQGIDFHQTFGGGTKVEIK
notes: humanized 4A-21; human IgG1/kappa

target: T2, recombinant MS4A4A soluble polypeptide JS5; test: ELISA, 0.11 ug/ml antibody
T2 construct: also called JS5.His
Method: (§1) Anti-MS4A4A antibodies of the present disclosure were tested for their ability to bind to the different recombinant MS4A4A soluble polypeptides, as described in Example 2, as follows. Nucleic acid encoding the VH and VL domains of humanized anti-MS4A4A antibodies of the present disclosure were cloned into pcDNA3.4 vector which contains either the human IgG1 heavy chain constant domain or human kappa constant domain. The humanized anti-MS4A4A antibodies were expressed in Expi293 cells and were purified by Mab select antibody purification resin (GE Healthcare Life Science, cat#17519902) following the manufacture's protocol. ELISA was performed to measure binding of anti-MS4A4A antibodies of the present disclosure the recombinant MS4A4A soluble polypeptides. 1 μg/ml biotinylated antigens were preincubated on the streptavidin-coated ELISA plates (Thermo Scientific, cat#PI15120) for 1 hour. Plates were washed 3 times, followed by the addition of antibodies (1 μg/ml, 0.33 μg/ml, and 0.11 μg/ml antibodies. Plates were incubated at room temperature with shaking for 1 hr, washed 3 times, then 1/2500 dilution of HRP conjugates goat anti human kappa antibodies added (SigmaAldrich cat#. A7164-1ML).

| Binder | ELISA OD |
| --- | --- |
| B1 | 0.655 |
| B2 | 0.654 |
| B3 | 0.685 |
| B4 | 0.63 |
| B5 | 0.577 |
| B6 | 0.721 |
| B7 | 0.636 |
| B8 | 0.701 |
| B9 | 0.746 |
| B10 | 0.543 |
| B11 | 0.091 |
| B12 | 0.399 |
| B13 | 0.097 |
| B14 | 0.741 |

target: T1, FcγRIIa receptor (H131 variant); test: cell-based or functional assay

| Binder | luminescence, ADCP reporter, 3.048316 ng/mL | luminescence, ADCP reporter, 9.144947 ng/mL | luminescence, ADCP reporter, 27.43484 ng/mL | luminescence, ADCP reporter, 82.30453 ng/mL | luminescence, ADCP reporter, 246.9136 ng/mL | luminescence, ADCP reporter, 740.7407 ng/mL | luminescence, ADCP reporter, 2,222.222 ng/mL | luminescence, ADCP reporter, 6,666.667 ng/mL | luminescence, ADCP reporter, 20,000 ng/mL |
| --- | --- | --- | --- | --- | --- | --- | --- | --- | --- |
| B14 | 48 | 54 | 80 | 64 | 98 | 85 | 128 | 403 | 455 |

target: T3, human MS4A4A (human, UniProt Q96JQ5 1-239); test: FACS, U937-huMS4A4A, 5 ug/ml
Method: (§2) Anti-MS4A4A antibodies tested were either mouse IgGs purified from hybridoma supernatant or human IgG1 Fc chimeras produced recombinantly in Expi293 cells. Affinity binding to cells was determined as follows. Briefly, cells were harvested, washed, and labeled with Aqua Live/Dead for viability discrimination. After a wash with PBS, 2×10\hat{ }4 cells were aliquoted per well in 96-well U-bottom plates and incubated with 50 μL of purified anti-MS4A4A antibody at various concentrations (3× dilutions starting at 10 μg/mL) in FACS buffer (PBS+2% FBS+1 mM EDTA). After this primary incubation, the supernatant was removed via centrifugation, washed 2× with 150 μL of ice-cold FACS buffer, and incubated with the appropriate secondary antibody on ice for 15 minutes. Following the secondary antibody incubation, the cells were again washed 2× with ice-cold FACS buffer and resuspended in a final volume of 200 μL of FACS buffer. Flow cytometry analysis was performed on a FACSCanto system (BD Biosciences). Binding data was expressed as Median Fluorescent Intensity (MFI).
(§3) These experiments were performed using anti-MS4A4A antibodies at a concentration of 5 μg/ml and were assayed for cell binding by flow cytometry.

| Binder | MFI |
| --- | --- |
| B15 | 97.2 |
| B11 | 113 |
| B16 | 112 |
| B17 | 131 |
| B18 | 89.7 |
| B19 | 142 |

target: T2, recombinant MS4A4A soluble polypeptide …; test: ELISA, 1 ug/ml antibody
Method: as §1

| Binder | ELISA OD |
| --- | --- |
| B1 | 0.985 |
| B2 | 0.981 |
| B3 | 1 |
| B4 | 0.996 |
| B5 | 0.928 |
| B6 | 0.961 |
| B7 | 0.944 |
| B8 | 0.98 |
| B9 | 0.927 |
| B10 | 0.893 |
| B11 | 0.128 |
| B12 | 1.14 |
| B13 | 0.184 |
| B14 | 1.26 |

target: T4, recombinant MS4A4A soluble polypeptide JS1; test: ELISA, 1 ug/ml antibody
T4 construct: also called JS1.His; loop grafted antigen
Method: as §1

| Binder | OD450 |
| --- | --- |
| B15 | 0.12 |
| B11 | 0.127 |
| B16 | 0.11 |
| B17 | 0.115 |
| B18 | 0.116 |
| B19 | 0.331 |

target: T3, human MS4A4A; test: FACS, U937-huMS4A4A, 5 ug/ml; remark: another data set of the same source
Method: as §2, §3

| Binder | MFI |
| --- | --- |
| B1 | 11000 |
| B2 | 11800 |
| B3 | 12600 |
| B4 | 10400 |
| B5 | 12200 |
| B6 | 13400 |
| B7 | 9910 |
| B8 | 13700 |
| B9 | 12000 |
| B10 | 10600 |
| B11 | 24400 |
| B12 | 15300 |
| B13 | 17700 |
| B14 | 41800 |

target: T2, recombinant MS4A4A soluble polypeptide …; test: ELISA, 0.33 ug/ml antibody
Method: as §1

| Binder | ELISA OD |
| --- | --- |
| B1 | 0.885 |
| B2 | 0.916 |
| B3 | 0.94 |
| B4 | 0.85 |
| B5 | 0.873 |
| B6 | 0.878 |
| B7 | 0.848 |
| B8 | 0.874 |
| B9 | 0.85 |
| B10 | 0.812 |
| B11 | 0.103 |
| B12 | 0.682 |
| B13 | 0.11 |
| B14 | 1.05 |

target: FcγRIIIa receptor (V158 variant) (UniProt P08637 17-254); test: cell-based or functional assay
Sequence (P08637 other isoform, or with tags, fused parts or gaps mutant limits assumed): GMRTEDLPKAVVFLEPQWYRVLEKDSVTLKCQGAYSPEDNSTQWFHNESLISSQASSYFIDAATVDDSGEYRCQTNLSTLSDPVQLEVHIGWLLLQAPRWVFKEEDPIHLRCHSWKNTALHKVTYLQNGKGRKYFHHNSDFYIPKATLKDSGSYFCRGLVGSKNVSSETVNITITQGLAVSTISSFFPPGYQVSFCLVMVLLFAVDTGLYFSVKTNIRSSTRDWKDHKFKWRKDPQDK

| Binder | luminescence, ADCC reporter, 3.048316 ng/mL | luminescence, ADCC reporter, 9.144947 ng/mL | luminescence, ADCC reporter, 27.43484 ng/mL | luminescence, ADCC reporter, 82.30453 ng/mL | luminescence, ADCC reporter, 246.9136 ng/mL | luminescence, ADCC reporter, 740.7407 ng/mL | luminescence, ADCC reporter, 2,222.222 ng/mL | luminescence, ADCC reporter, 6,666.667 ng/mL | luminescence, ADCC reporter, 20,000 ng/mL |
| --- | --- | --- | --- | --- | --- | --- | --- | --- | --- |
| B14 | 346 | 367 | 473 | 839 | 2060 | 4350 | 5130 | 4890 | 4400 |
